For data set [1] the following is noted: mouse, in vivo. From the text:
Initial distribution studies used male and female CD-1 mice (8–10 weeks old) purchased from Charles River Laboratories (Seattle, WA). Follow-up studies performed in male and female hemizygous APP/PS1 mice and WT littermates on a C57BL/6J background (Cat 034832-JAX) were purchased from the Mutant Mouse Resource & Research Centers (MMRRC-NIH) at approximately 2 months of age.
IRA administration followed the IN protocol outlined in Rhea et al.. Mice were anesthetized with 40% urethane intraperitoneally. […] Delicate delivery with negligible force was necessary to prevent injuring the turbinates or penetrating the cribriform plate. Tips were also examined for the presence of blood to ensure no cribriform plate rupture took place. Mice remained in the supine state for a duration of at least 30 s before being placed onto the left side.
Collection of blood occurred from the right carotid artery, and the whole brain and olfactory bulbs (Olf) were removed at 5, 15, 30, and 60 min time points after IN administration. […] Radioactivity levels were calculated for the whole brain by combining the radioactivity of each brain region and dividing by the total weights. The same was done for the neocortex (Crtx) by combining radioactivity and weights for the FC, PC, and OC. […] A 50 µl aliquot of the serum was then collected for measurement of radioactivity. Radioactivity amounts for each individual brain region, olfactory bulb, and serum were measured in a Wizard2 Automatic Gamma Counter (PerkinElmer, Waltham, MA) for 30 min. ^14C-DA5-CH samples were solubilized with Solvable (Sigma), transferred to scintillation vials containing Ecoscint (National Diagnostics) and ^14C was measured in a beta counter (TriCarb 3110TR, Perkin-Elmer). Radioactivity for ^125I was measured by counts per minute (cpm) while ^14C was measured by disintegrations per minute (dpm). […]
Injected dose percentages per ml of serum (%Inj/ml) were calculated by: […]
where Inj is dose of cpm administered and cpm/ml is the amount of radioactivity in one ml of serum. […]

For data set [2] the following is noted: mouse, in vivo, cited from earlier work. The source says:
Using ^125I labelled IRAs, we tested the ability of intravenously administered IRAs to cross the blood-brain barrier (BBB) in mice. […] The BBB is a functional interface between blood and brain that allows for regulated entry of circulating substrates.

Data set [3] in a line: Stability of IRA following IN delivery (TCA acid precipitation of brain, olfactory bulb, serum) in CD-1 mice. The settings on record: mouse, in vivo. As for the experimental part: Blood was centrifuged at 3200 xg for 10 min. Serum (50 µl) was combined with 250 µl of BSA/LR, then combined with 300 µl of 30% TCA. Tissues were homogenized in 0.6 ml of 1% BSA/LR solution using a bead beater for 30 s at 4800 rpm twice on ice. […] Equal parts supernatant (300 µl) was mixed with an equal volume of 30% TCA. Serum and brain acid precipitated samples were centrifuged at 5400 xg for 10 min. The supernatant (S) was transferred to a new tube, leaving behind the pellet (P). The final S and P fractions for serum, olfactory bulb, and whole brain were counted separately, and the percentage of radioactivity was calculated using.
%Precip = 100 x (P)/(S + P) as described.
All biological samples were corrected for processing degradation by dividing their values by this processing control (PCon) value and multiplying by 100.

For data set [4] the following is noted: in vivo; cited from earlier work. As for the experimental part:
IRAs are forms of these hormones modified to prolong their otherwise very short half-lives in plasma (less than 2 min).

For the compound `CC[C@H](C)[C@H](NC(=O)[C@H](Cc1ccccc1)NC(=O)[C@H](CCC(=O)O)NC(=O)[C@H](CCCCNC(=O)COCCOCCNC(=O)COCCOCCNC(=O)CC[C@H](NC(=O)CCCCCCCCCCCCCCCCC(=O)O)C(=O)O)NC(=O)[C@H](C)NC(=O)[C@H](C)NC(=O)[C@H](CCC(N)=O)NC(=O)CNC(=O)[C@H](CCC(=O)O)NC(=O)[C@H](CC(C)C)NC(=O)[C@H](Cc1ccc(O)cc1)NC(=O)[C@H](CO)NC(=O)[C@H](CO)NC(=O)[C@@H](NC(=O)[C@H](CC(=O)O)NC(=O)[C@H](CO)NC(=O)[C@@H](NC(=O)[C@H](Cc1ccccc1)NC(=O)[C@@H](NC(=O)CNC(=O)[C@H](CCC(=O)O)NC(=O)C(C)(C)NC(=O)[C@@H](N)Cc1cnc[nH]1)[C@@H](C)O)[C@@H](C)O)C(C)C)C(=O)N[C@@H](C)C(=O)N[C@@H](Cc1c[nH]c2ccccc12)C(=O)N[C@@H](CC(C)C)C(=O)N[C@H](C(=O)N[C@@H](CCCNC(=N)N)C(=O)NCC(=O)N[C@@H](CCCNC(=N)N)C(=O)NCC(=O)O)C(C)C` [Semaglutide], the “Whole brain maximal uptake relative to the other IRAs” value in data set [1] is “three-fold less uptake”. In data set [2], the “Rate of crossing the BBB after IV administration” value (from here on “Rate of crossing the BBB”) is given as “undetectable within an hour”, the “Rate of whole brain uptake an hour after IV administration” value is listed as “undetectable” and the “Time for brain detection after systemic administration” value is listed as “took hours for brain detection”. Moreover, in data set [3], the “Acid precipitation (AP%) olfactory bulb” value is 100.9 ± 0.5%, the “Acid precipitation (AP%) serum” value came out at 86.9 ± 1.1% and the “Acid precipitation (AP%) whole brain” value came out at 74.7 ± 17.7%.
“dulaglutide (BAF): dulaglutide bioactive fragment, single IRA, 3315 Da, purchased from GLPBIO (catalog # GC31520); 125I-labelled”: in data set [1], the “Serum level following IN delivery” value was “highest levels” and the “Sex difference in maximum uptake in hypothalamus” value was “females having less uptake”. Besides, in data set [2], the “Rate of crossing the BBB” value is recorded as “quickly” and the “Rate of whole brain uptake an hour after IV administration” value is “relatively high”.
Regarding “liraglutide: incretin receptor agonist, cited BBB data”, the “Time for brain detection after systemic administration” value in data set [2] is given as “took hours for brain detection”.
On to glucagon-like peptide-1 [GLP-1], for which the Half-life in plasma entry in data set [4] was “less than 2 min”.
On to “lixisenatide: incretin receptor agonist, cited IV BBB data”, for which, in data set [2], the “Rate of crossing the BBB” value is recorded as “slow rates”.
Consider “albiglutide: incretin receptor agonist, cited IV BBB data”, for which the “Rate of crossing the BBB” value in data set [2] was “quickly”.
Turning to “tirzepatide: incretin receptor agonist, cited IV BBB data”, the “Rate of crossing the BBB” value in data set [2] is “undetectable within an hour”.

(Values after article PMC11293113, “Comparing regional brain uptake of incretin receptor agonists after intranasal delivery in CD-1 mice and the APP/PS1 mouse model of Alzheimer’s disease” (Alzheimer's Research & Therapy, 2024).)
